Assay results published in patent US20150246136A1 (Bayer, published 2015).
“And” between values parts separate entries of the source, which are not always exact repeats. Equal entries are not always repeated.

B1: Example 56, conjugate of anti-mesothelin antibody MF-Ta (antibody, human IgG1, lambda, V domains shown)
VH: QVELVQSGAEVKKPGESLKISCKGSGYSFTSYWIGWVRQAPGKGLEWMGIIDPGDSRTRYSPSFQGQVTISADKSISTAYLQWSSLKASDTAMYYCARGQLYGGTYMDGWGQGTLVTVSS
VL: DIALTQPASVSGSPGQSITISCTGTSSDIGGYNSVSWYQQHPGKAPKLMIYGVNNRPSGVSNRFSGSKSGNTASLTISGLQAEDEADYYCSSYDIESATPVFGGGTKLTVLG
modifications: toxophore-linker on Cys sulfur, sites not given
B2: Example 82, conjugate of anti-mesothelin antibody MF-Ta (antibody, human IgG1, lambda, V domains shown)
VH: B1 VH
VL: B1 VL
modifications: toxophore-linker on Cys sulfur, sites not given
B3: Example 71, conjugate of anti-mesothelin antibody MF-Ta (antibody, human IgG1, lambda, V domains shown)
VH: B1 VH
VL: B1 VL
modifications: toxophore-linker on Cys sulfur, sites not given
B4: Example 98, conjugate of anti-mesothelin antibody MF-Ta (antibody, human IgG1, lambda, V domains shown)
VH: B1 VH
VL: B1 VL
modifications: toxophore-linker on Cys sulfur, sites not given
B5: Example 86, conjugate of anti-mesothelin antibody MF-Ta (antibody, human IgG1, lambda, V domains shown)
VH: B1 VH
VL: B1 VL
modifications: toxophore-linker on Cys sulfur, sites not given
B6: Example 59, conjugate of anti-mesothelin antibody MF-Ta (antibody, human IgG1, lambda, V domains shown)
VH: B1 VH
VL: B1 VL
modifications: toxophore-linker on Lys NH, sites not given
B7: Example 81, conjugate of anti-mesothelin antibody MF-Ta (antibody, human IgG1, lambda, V domains shown)
VH: B1 VH
VL: B1 VL
modifications: toxophore-linker on Cys sulfur, sites not given
B8: Example 63, conjugate of anti-mesothelin antibody MF-Ta (antibody, human IgG1, lambda, V domains shown)
VH: B1 VH
VL: B1 VL
modifications: toxophore-linker on Cys sulfur, sites not given
B9: Example 76, conjugate of anti-mesothelin antibody MF-Ta (antibody, human IgG1, lambda, V domains shown)
VH: B1 VH
VL: B1 VL
modifications: toxophore-linker on Cys sulfur, sites not given
B10: Example 62, conjugate of anti-mesothelin antibody MF-Ta (antibody, human IgG1, lambda, V domains shown)
VH: B1 VH
VL: B1 VL
modifications: toxophore-linker on Cys sulfur, sites not given
B11: Example 66, conjugate of anti-mesothelin antibody MF-Ta (antibody, human IgG1, lambda, V domains shown)
VH: B1 VH
VL: B1 VL
modifications: toxophore-linker on Cys sulfur, sites not given
B12: Example 88, conjugate of anti-mesothelin antibody MF-Ta (antibody, human IgG1, lambda, V domains shown)
VH: B1 VH
VL: B1 VL
modifications: toxophore-linker on Cys sulfur, sites not given
B13: Example 57, conjugate of anti-mesothelin antibody MF-Ta (antibody, human IgG1, lambda, V domains shown)
VH: B1 VH
VL: B1 VL
modifications: toxophore-linker on Cys sulfur, sites not given
B14: Example 85, conjugate of anti-mesothelin antibody MF-Ta (antibody, human IgG1, lambda, V domains shown)
VH: B1 VH
VL: B1 VL
modifications: toxophore-linker on Cys sulfur, sites not given
B15: Example 78, conjugate of anti-mesothelin antibody MF-Ta (antibody, human IgG1, lambda, V domains shown)
VH: B1 VH
VL: B1 VL
modifications: toxophore-linker on Cys sulfur, sites not given
B16: Example 94, conjugate of anti-mesothelin antibody MF-Ta (antibody, human IgG1, lambda, V domains shown)
VH: B1 VH
VL: B1 VL
modifications: toxophore-linker on Cys sulfur, sites not given
B17: Example 58, conjugate of anti-mesothelin antibody MF-Ta (antibody, human IgG1, lambda, V domains shown)
VH: B1 VH
VL: B1 VL
modifications: toxophore-linker on Lys NH, sites not given
B18: Example 84, conjugate of anti-mesothelin antibody MF-Ta (antibody, human IgG1, lambda, V domains shown)
VH: B1 VH
VL: B1 VL
modifications: toxophore-linker on Lys NH, sites not given
B19: Example 74, conjugate of anti-mesothelin antibody MF-Ta (antibody, human IgG1, lambda, V domains shown)
VH: B1 VH
VL: B1 VL
modifications: toxophore-linker on Cys sulfur, sites not given
B20: Example 83, conjugate of anti-mesothelin antibody MF-Ta (antibody, human IgG1, lambda, V domains shown)
VH: B1 VH
VL: B1 VL
modifications: toxophore-linker on Cys sulfur, sites not given
B21: Example 80, conjugate of anti-mesothelin antibody MF-Ta (antibody, human IgG1, lambda, V domains shown)
VH: B1 VH
VL: B1 VL
modifications: toxophore-linker on Cys sulfur, sites not given
B22: Example 73, conjugate of anti-mesothelin antibody MF-Ta (antibody, human IgG1, lambda, V domains shown)
VH: B1 VH
VL: B1 VL
modifications: toxophore-linker on Cys sulfur, sites not given
B23: Example 61, conjugate of anti-mesothelin antibody MF-Ta (antibody, human IgG1, lambda, V domains shown)
VH: B1 VH
VL: B1 VL
modifications: toxophore-linker on Cys sulfur, sites not given
B24: Example 90, conjugate of anti-mesothelin antibody MF-Ta (antibody, human IgG1, lambda, V domains shown)
VH: B1 VH
VL: B1 VL
modifications: toxophore-linker on Cys sulfur, sites not given
B25: Example 91, conjugate of anti-mesothelin antibody MF-Ta (antibody, human IgG1, lambda, V domains shown)
VH: B1 VH
VL: B1 VL
modifications: toxophore-linker on Cys sulfur, sites not given
B26: Example 60, conjugate of anti-mesothelin antibody MF-Ta (antibody, human IgG1, lambda, V domains shown)
VH: B1 VH
VL: B1 VL
modifications: toxophore-linker on Cys sulfur, sites not given
B27: Example 79, conjugate of anti-mesothelin antibody MF-Ta (antibody, human IgG1, lambda, V domains shown)
VH: B1 VH
VL: B1 VL
modifications: toxophore-linker on Cys sulfur, sites not given
B28: Example 65, conjugate of anti-mesothelin antibody MF-Ta (antibody, human IgG1, lambda, V domains shown)
VH: B1 VH
VL: B1 VL
modifications: toxophore-linker on Cys sulfur, sites not given
B29: Example 67, conjugate of anti-mesothelin antibody MF-Ta (antibody, human IgG1, lambda, V domains shown)
VH: B1 VH
VL: B1 VL
modifications: toxophore-linker on Cys sulfur, sites not given
B30: Example 95, conjugate of anti-mesothelin antibody MF-Ta (antibody, human IgG1, lambda, V domains shown)
VH: B1 VH
VL: B1 VL
modifications: toxophore-linker on Cys sulfur, sites not given
B31: Example 70, conjugate of anti-mesothelin antibody MF-Ta (antibody, human IgG1, lambda, V domains shown)
VH: B1 VH
VL: B1 VL
modifications: toxophore-linker on Cys sulfur, sites not given
B32: Example 69, conjugate of anti-mesothelin antibody MF-Ta (antibody, human IgG1, lambda, V domains shown)
VH: B1 VH
VL: B1 VL
modifications: toxophore-linker on Cys sulfur, sites not given
B33: Example 72, conjugate of anti-mesothelin antibody MF-Ta (antibody, human IgG1, lambda, V domains shown)
VH: B1 VH
VL: B1 VL
modifications: toxophore-linker on Cys sulfur, sites not given
B34: Example 89, conjugate of anti-mesothelin antibody MF-Ta (antibody, human IgG1, lambda, V domains shown)
VH: B1 VH
VL: B1 VL
modifications: toxophore-linker on Cys sulfur, sites not given
B35: Example 97, conjugate of anti-mesothelin antibody MF-Ta (antibody, human IgG1, lambda, V domains shown)
VH: B1 VH
VL: B1 VL
modifications: toxophore-linker on Cys sulfur, sites not given
B36: Example 75, conjugate of anti-mesothelin antibody MF-Ta (antibody, human IgG1, lambda, V domains shown)
VH: B1 VH
VL: B1 VL
modifications: toxophore-linker on Lys NH, sites not given
B37: Example 93, conjugate of anti-mesothelin antibody MF-Ta (antibody, human IgG1, lambda, V domains shown)
VH: B1 VH
VL: B1 VL
modifications: toxophore-linker on Lys NH, sites not given
B38: Example 77, conjugate of anti-mesothelin antibody MF-Ta (antibody, human IgG1, lambda, V domains shown)
VH: B1 VH
VL: B1 VL
modifications: toxophore-linker on Cys sulfur, sites not given
B39: Example 92, conjugate of anti-mesothelin antibody MF-Ta (antibody, human IgG1, lambda, V domains shown)
VH: B1 VH
VL: B1 VL
modifications: toxophore-linker on Cys sulfur, sites not given
B40: Example 99, conjugate of anti-mesothelin antibody MF-Ta (antibody, human IgG1, lambda, V domains shown)
VH: B1 VH
VL: B1 VL
modifications: toxophore-linker on Cys sulfur, sites not given
B41: Example 64, conjugate of anti-mesothelin antibody MF-Ta (antibody, human IgG1, lambda, V domains shown)
VH: B1 VH
VL: B1 VL
modifications: toxophore-linker on Cys sulfur, sites not given
B42: Example 96, conjugate of anti-mesothelin antibody MF-Ta (antibody, human IgG1, lambda, V domains shown)
VH: B1 VH
VL: B1 VL
modifications: toxophore-linker on Cys sulfur, sites not given
B43: Example 68, conjugate of anti-mesothelin antibody MF-Ta (antibody, human IgG1, lambda, V domains shown)
VH: B1 VH
VL: B1 VL
modifications: toxophore-linker on Cys sulfur, sites not given
B44: Example 87, conjugate of anti-mesothelin antibody MF-Ta (antibody, human IgG1, lambda, V domains shown)
VH: B1 VH
VL: B1 VL
modifications: toxophore-linker on Lys NH, sites not given

Target: Mesothelin (SwissProt reference Q13421-3) (Homo sapiens, UniProt Q13421 37-622)
Test: cell-based or functional assay

Binder	IC50 (nM), HT29 meso+ cells, MTT proliferation assay
B1	0.17 nM
B2	24 nM
B3	0.6 nM
B4	1.7 nM
B5	0.45 nM
B6	1 nM
B7	0.02 nM
B8	0.03 nM
B9	0.35 nM
B10	20 nM
B11	1.5 nM
B12	0.01 nM
B13	0.4 nM
B14	0.2 nM
B15	1.1 nM
B16	0.6 nM
B17	5 nM
B18	6 nM
B19	9 nM
B20	0.3 nM
B21	4.4 nM
B22	25 nM

Binder	IC50 (nM), HT29 meso+ cells, MTT proliferation assay
B23	0.019 nM
B24	2.6 nM
B25	0.35 nM
B26	0.06 nM and 0.16 nM
B27	0.5 nM
B28	0.14 nM
B29	0.015 nM
B30	0.013 nM
B31	0.02 nM
B32	0.07 nM
B33	0.05 nM
B34	0.06 nM
B35	0.2 nM
B36	0.2 nM
B37	52 nM
B38	0.8 nM
B39	38 nM
B40	0.27 nM
B41	0.11 nM
B42	25 nM
B43	2 nM
B44	0.9 nM
